The values that follow come from US20180216136.

In this series the test system is ZFN 30035 (AAVS1) (synthetic). The series can be described thus: cell_activity. The note with it: pair 30035:30054 in CD34+ cells, higher AAV6 donor dose, ZFN mRNA 40 ug/ml.

Some results are limits rather than exact numbers.

The sequence “CCCCACTGTGGGGTGGAGGGGACAGATA (double strand) [AAVS1 30035 target]” came in with an activity (% targeted integration) above 50.
